Measurements: the supplement of paper PMC12764529
± gives the half width of the 95% confidence interval.

assay: folding stability dG unfold (combined trypsin and chymotrypsin); higher = more stable
Procedure, shortened: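 Unfolding free energy was derived, per protease or combined, by relating Bayesian-fitted K50 values from sequencing counts to a sequence-predicted unfolded-state K50 and a shared folded-state K50. The underlying digests exposed cysteine-free mini-proteins under 80 residues, in a PA-tagged cDNA display construct, to trypsin and chymotrypsin at 11 threefold-diluted concentrations and to a no-protease condition. A filter kept only designs with AlphaFold2 dimer inter-PAE above 15.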

| Sequence | folding stability dG unfold [kcal/mol] |
| --- | --- |
| SAGGSAMPVKTSTTTEGDTVTTYTLEPVGGSTTLTTTTTTVTKTNSGTTTTSTTTTTPLPTASGATSAGGSA [r15_725_JUSTAS] | -0.014 ± 0.074 |
| SAGGPLGNLTLDQIVDLVREAFPDLPVRVDVEPIDEETGYVRVTVEPPLPNGGTARAEFILPILPDDSAGGS [r16_564_TrMRF] | 1.07 ± 0.076 |
| SAGGTAEEIAEKVRDIFQDNGYPIEVEPRRWDPNNYVTWRMRMPGWSIEIQWDPDDLEVEIEIEPMPSAGGS [r8_157_TrROS] | 3.24 ± 0.2 |
| SAEPEVEYVVIELEVTIELAPGQEAPTADEIAEALRAALEAAGAEITSVEVEVRDGQVTVRVTIVLPKKASA [r9_1134_TrROS_Hall] | 3.6 ± 0.16 |
| SAGGSAGGSAGDSPSTPVLVTETFTFPVTVTAPNEGGYSTTTSTVTVTVTLEVYVSPSFPSAGGSAGGSAGG [r17_186_JUSTAS] | 2.62 ± 0.061 |
| SAGGSAGGSAGGAPNAPKPVLVFAEVTVTSVEYDPETGELRIEVELPDGGEKLTFRLPLSAGGSAGGSAGGS [r10_427_TrMRF] | 2.23 ± 0.054 |
| SAGGSAGGRRIYLPDFGAGGSGLVKAAEIAAAFEEEGYVASVSFSTSPFGPSVLVVDVASPSELSAGGSAGG [r6_597_TrMRF] | -0.171 ± 0.14 |
| SAGGSAGGSALVVRLENGKEILIEGMSEEEIKELLDKLLPPEEKKNLKIVKVEVFEVEKPESAGGSAGGSAG [r3_340_TrROS_Hall] | 1.29 ± 0.18 |
| SAGGSAKEEIRLVIEVDGKLIEITIPKDKITKVEFDKETGKITITVKVNGKELKLVFTDGKAKLVESAGGSA [r15_598_TrROS_Hall] | 2.47 ± 0.17 |
| SAGGSAGGSAGNTIEIEINGKPIYVEFEPLPEGMVKVKIYFPDGKKEEITLPANDPIKIGSAGGSAGGSAGG [r11_525_TrROS] | 1.58 ± 0.13 |
| SMKPNEKFPSLEEVKEAAKRIAEEIEKKTGKKIEVEVKVETVKKEDGKEVVKITIVDKKTKKVIKEIEIKSA [r9_794_TrROS_Hall] | 1.58 ± 0.12 |
| SAGGSAGGSAMTVPLDTLTPERLRELLAENPERVVLKSADSVLVLSRDPATGRLTVTSHELRSAGGSAGGSA [r18_75_JUSTAS] | 1.22 ± 0.022 |
| SAGGSAGGSAGSMVTKTTTVEEKIGPGNLKLVKEKITIYDPSTGKPIKEETKITIEPVLLSAGGSAGGSAGG [r17_317_JUSTAS] | 0.148 ± 0.38 |
| SAGGSAGGSAGETITVKIVRFKPGSPEVRKLAEKLGLSEEEVEPVEVFTFKSEEELKAALSAGGSAGGSAGG [r11_83_TrROS_Hall] | 0.374 ± 0.16 |
| SAKASELLKKLPFEAEIEEGEEFVKIKLKNPFLKNPNVTFEFEIPTKKGKPIKVKVTLTKNGAEKIEPSSAG [r14_401_TrMRF] | 2.25 ± 0.34 |
| SAMILPKTVPKTITYPGSEEEARAVAEAEAARLKAQGNVTVDITFVKKSPEGGYTIEITITDYAPPELLSAG [r14_413_JUSTAS] | 0.861 ± 0.23 |

| Sequence | folding stability dG unfold [kcal/mol] |
| --- | --- |
| SPDPGMKPRPMYMIRIKIEVTTPDGKKRGKHDFIIQSPEEAKEFIEELAENRGMKIKKIDIDIYPMPWLKSA [r9_1226_TrROS] | 2.18 ± 0.1 |
| SAGGSAGGSPIDITDIEVEQHEHPDGQQYHEVKIRLPDGRPIKIWMSPGSTPDQVLKQAKEFISAGGSAGGS [r12_1047_TrROS] | 0.0598 ± 0.17 |
| SAGGSAGGSAGPMYIITHTSPNEPIEFIFPPDDAEEFLKKLKLPPNMNIKVEPIDPDDMKSAGGSAGGSAGG [r17_395_TrROS] | 0.367 ± 0.18 |
| SAGGSANWVKVEVKIPGGLKIEVWVPPGMSKEENQEKAQEMADEMAQMLRQMRENRKEGKPPTIDFSAGGSA [r15_704_TrROS] | 1.66 ± 0.1 |
| SAGGSAGGSAGKKKIIILINENMKEEEIVDYIKKKYGKNVKIEEIIPISPNIKIIKVIIDSAGGSAGGSAGG [r11_580_TrMRF] | 4.02 ± 0.14 |
| SKKITIEIELYRNPETKKLPLKLKAYNENGEPLGELEIEFTESPEEALEKALALAKELAESNDAEITFGLSA [r9_31_TrMRF] | 1.76 ± 0.057 |
| SAGGEKKVLIVKVEIKLINNGGEFEAEFVFPEDVTLEEILAKVKELLPPGAKAEIKIKEIKLVSEDGSAGGS [r16_393_TrMRF] | 3.58 ± 0.39 |
| SAGGSAGGSPEEFEIKIVEPTPIEINPNGSVSLTFTVPNGWYLRIMIMRPPDGNPQPMIMIIPSAGGSAGGS [r20_240_TrROS] | 3.22 ± 0.11 |
| SAGGSAGGSARRDEVVERARERLLEEHPDLKPGETATVVVRDPETDEVYVFRFDGDGRVYGSAGGSAGGSAG [r3_441_TrMRF] | 1.31 ± 0.16 |
| SPPHWMIMPTVERKDPNGEKKTVTYMIPVPPGNWDKMLDNIADEAGDPDLKIKEIEPSKNGFIMIKLKVKSA [r9_1101_TrROS] | 0.0989 ± 0.54 |
| SAGGSIEEIAETLRDLLAPPEYEVDVEVVEVEVDPINPRIKRVRLKATVYPPDGSSREIEFEIPFDELSAGG [r13_215_TrMRF] | 1.71 ± 0.062 |
| SAMKIEPVPDPEHGRTYYTIKFKGAEVQIWENPGQYYISIRPPGNNKQIVIPAPPNDIDDILKELGIKPSAG [r14_4_TrROS] | 1.4 ± 0.17 |
| SAGGSAEEEEARRLAEELARRLEEEGYEIERVEVRVERLPDGTVRITVRVYRKDGKPVLELEITLPSAGGSA [r15_232_TrROS_Hall] | 4.97 ± 0.11 |
| SAGGSAGGSAEITVEWPNGRPVTVEPDPDSGMYEARFPDGWVVRAPFTNGKIPIDWIPPKDVSAGGSAGGSA [r18_405_TrROS] | 0.00326 ± 0.08 |
| SAGGSPNIQVNVERDPKDGYIKFSITVPPGAPNMKIKIAIFENDKIVEKEEITMPPGKTTEYTFKIKSAGGS [r16_412_TrROS] | 3.6 ± 0.38 |
| SAGGSAGGSAGGVIKTFTSPDNKKYTVTVNKDGSVTVETFDPETGKKSISTVSAAEASLSAGGSAGGSAGGS [r10_838_JUSTAS] | 1.18 ± 0.063 |
